Data on two molecules can be found in patent US20150023971A1.

Assay [1] deals with purified human Sortilin extracellular domain (produced in stably transfected CHO cells) (human) (UniProt Q99523). Briefly: SPR (Biacore), immobilised Sortilin extracellular domain (94 fmol/mm2); GST-pro-domain of proBDNF, upper panel of FIG. 7.
Assay [2] deals with T1, recombinant his-S-tagged pro-domain of human BDNF (residues Ala1-Arg110), from pET-30 Xa/LIC, E. coli (human) (UniProt P23560).
T1 sequence: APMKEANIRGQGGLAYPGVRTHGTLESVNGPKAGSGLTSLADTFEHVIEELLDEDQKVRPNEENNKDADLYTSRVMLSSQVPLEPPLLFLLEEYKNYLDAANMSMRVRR
Kind of assay: SPR competition, 390 nM Sortilin with 300 uM peptide over immobilised pro-dom-BDNF.

Sequence of purified human Sortilin extracellular domain (produced in stably transfected CHO cells) (human) (Q99523 78-755 V650M limits assumed): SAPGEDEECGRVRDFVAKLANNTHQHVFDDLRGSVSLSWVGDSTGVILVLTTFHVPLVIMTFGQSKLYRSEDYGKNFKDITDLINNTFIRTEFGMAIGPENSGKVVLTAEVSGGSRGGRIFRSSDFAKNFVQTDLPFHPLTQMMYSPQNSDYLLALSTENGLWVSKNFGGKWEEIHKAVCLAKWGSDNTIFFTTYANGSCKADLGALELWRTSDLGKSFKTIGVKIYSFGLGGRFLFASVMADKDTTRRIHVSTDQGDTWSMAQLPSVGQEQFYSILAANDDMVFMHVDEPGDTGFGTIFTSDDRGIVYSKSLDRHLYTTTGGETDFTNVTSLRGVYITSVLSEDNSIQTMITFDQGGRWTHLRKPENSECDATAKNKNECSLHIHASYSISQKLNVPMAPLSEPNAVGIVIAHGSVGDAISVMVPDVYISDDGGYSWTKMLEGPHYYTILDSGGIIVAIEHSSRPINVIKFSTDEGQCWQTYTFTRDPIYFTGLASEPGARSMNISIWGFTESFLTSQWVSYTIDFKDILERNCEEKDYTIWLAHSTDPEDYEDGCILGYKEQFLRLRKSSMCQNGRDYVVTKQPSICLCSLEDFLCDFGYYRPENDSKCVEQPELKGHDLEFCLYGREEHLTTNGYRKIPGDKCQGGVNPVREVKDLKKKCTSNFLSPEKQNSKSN

B1: pro-domain of human BDNF fused to GST (glutathione S-transferase), produced in E. coli (protein, not shown: a dimerising Fc or GST)
chain: T1 sequence
In general, Kd refers to the constant that tells how readily two partners part at equilibrium. Read a low Kd as tighter binding. For B1, the Kd in assay [1] amounted to 58 nM. For RSSDFAKNFVQTDLPF [sortilin peptide … (synthetic, soluble)], the percent inhibition of Sortilin binding to pro-dom-BDNF in assay [2] was 66%.
